Assay results: PMC3830645
One block for each binder: values may come before it.

Columns and labels:
[1] = biological target: EGF/tEGFR: purified tail-truncated EGFR (aa 25–1022) with EGF, solubilized in detergent or reconstituted in nanodiscs
[2] = biological target: EGF/tEGFR: purified tail-truncated EGFR (aa 25–1022) with EGF, solubilized in detergent or reconstituted in nanodiscs; remark: listed apart in the source

- IC50 of inhibition of tEGFR kinase activity [1]: 740 nM
B1: His6-Mig6 segment 1+2 (aa 336–412) mutant Y394E (domain or fragment)
chain: KSLPSYLNGVMPPTQSFAPDPKYVSSKALQRQNSEGSASKVPCILPIIENGKKVSSTHEYLLPERPPYLDKYEKFFR

- IC50 of inhibition of EGFR (tEGFR) kinase activity [2]: > 3000 nM
B2: unligated GST-Mig6 (aa 336–391) (domain or fragment)
chain: KSLPSYLNGVMPPTQSFAPDPKYVSSKALQRQNSEGSASKVPCILPIIENGKKVPG
